Read-outs that look alike come from different tables or passages of the source. *1 amine or outer side, *2 acyl side, *3 side chain or, on linkers, in order; H or OH if unused. Bridges are numbered along the chain shown (N, C = ends). TBMB = c1c(C[*:1])cc(C[*:3])cc1C[*:2]

These results are taken from patent US20150166988A1 (Bicycle, published 2015).

In test [1] the target is T1, human plasma kallikrein (activated with factor XIIa) (human, UniProt P03952 20-638). In words: cell-based or functional assay.
In test [2] the target is T1, human plasma kallikrein (activated with …). Put plainly: cell-based or functional assay. The source holds these as a separate data set.
Test [3] shares this target. Put plainly: cell-based or functional assay. The source holds these as a separate data set.
For test [4] the target is unchanged. Put plainly: apparent Ki calculated from the enzyme inhibition IC50 (fluorogenic substrate Z-Phe-Arg-AMC) with the Cheng and Prusoff equation.
The target of test [5] is recombinant mouse plasma kallikrein (activated with thermolysin) (mouse, UniProt P26262 20-638). In words: cell-based or functional assay.
Another test has as its target human factor XIa (human, UniProt P03951 19-625). Put plainly: cell-based or functional assay.
The next test deals with human thrombin (human, UniProt P00734 328-622). Put plainly: cell-based or functional assay.

T1 sequence (P03952 20-638 limits assumed): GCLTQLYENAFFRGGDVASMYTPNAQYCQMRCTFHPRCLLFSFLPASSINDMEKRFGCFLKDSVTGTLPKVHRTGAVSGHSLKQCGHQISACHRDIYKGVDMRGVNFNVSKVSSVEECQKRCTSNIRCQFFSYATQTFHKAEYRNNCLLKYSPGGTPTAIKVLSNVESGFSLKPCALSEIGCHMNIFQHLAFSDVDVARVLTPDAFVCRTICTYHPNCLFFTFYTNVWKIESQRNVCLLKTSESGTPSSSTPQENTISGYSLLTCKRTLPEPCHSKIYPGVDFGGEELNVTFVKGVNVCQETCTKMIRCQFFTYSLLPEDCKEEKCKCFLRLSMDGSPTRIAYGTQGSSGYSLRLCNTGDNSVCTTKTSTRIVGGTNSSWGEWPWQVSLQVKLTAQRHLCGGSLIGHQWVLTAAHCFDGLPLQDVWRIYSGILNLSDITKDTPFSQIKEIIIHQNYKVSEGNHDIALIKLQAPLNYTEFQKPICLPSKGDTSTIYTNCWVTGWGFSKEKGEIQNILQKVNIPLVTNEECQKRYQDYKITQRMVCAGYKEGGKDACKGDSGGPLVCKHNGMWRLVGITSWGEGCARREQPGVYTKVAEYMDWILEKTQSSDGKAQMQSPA
recombinant mouse plasma kallikrein (activated with thermolysin), sequence (P26262 20-638 limits assumed): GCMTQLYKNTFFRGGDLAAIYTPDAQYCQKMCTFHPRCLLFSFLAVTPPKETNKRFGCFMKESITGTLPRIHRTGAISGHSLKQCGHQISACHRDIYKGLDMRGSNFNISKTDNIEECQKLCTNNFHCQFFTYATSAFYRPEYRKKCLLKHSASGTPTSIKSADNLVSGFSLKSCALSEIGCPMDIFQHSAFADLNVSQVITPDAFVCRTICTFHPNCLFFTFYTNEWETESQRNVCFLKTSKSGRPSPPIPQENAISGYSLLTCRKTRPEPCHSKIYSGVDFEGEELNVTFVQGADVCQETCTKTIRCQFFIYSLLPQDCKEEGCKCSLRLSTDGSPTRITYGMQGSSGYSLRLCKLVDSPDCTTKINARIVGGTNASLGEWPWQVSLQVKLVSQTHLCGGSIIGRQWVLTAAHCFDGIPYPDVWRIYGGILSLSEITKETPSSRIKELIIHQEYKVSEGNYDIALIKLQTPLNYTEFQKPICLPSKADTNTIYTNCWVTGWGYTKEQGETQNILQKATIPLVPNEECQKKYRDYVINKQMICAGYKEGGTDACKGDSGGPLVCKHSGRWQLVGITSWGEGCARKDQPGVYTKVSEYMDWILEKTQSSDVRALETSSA

B1: TBMB modified peptide PK15 hydrolysed in one binding loop by human plasma kallikrein (peptide)
peptide: H-ACSDRFRNCPADEALCG-NH2
modifications: linker 2-9-16 via TBMB; also: one peptide bond in a loop hydrolysed, position not given here
As for B1, in test [1], the “IC50, residual enzyme activity” value is 2.2 nM.

B2: TBMB modified peptide PK15 (bi-cyclic peptide) (peptide)
peptide: H-ACSDRFRNCPADEALCG-NH2
modifications: linker 2-9-16 via TBMB
notes: Chemically synthesized 17-mer reacted with TBMB; also called conjugate PK15; peptide conjugate PK15
For B2, the “IC50, residual enzyme activity” value in test [1] worked out at 1.6 nM. For the same molecule, the “IC50 (nM), residual enzyme activity” value in test [2] and in test [3] was 1.7 nM in each case. Also, the Ki in test [4] is 1.5 nM.

B3: TBMB modified synthetic peptide PK4 (bi-cyclic peptide) (peptide)
peptide: H-ACSTERRYCPIEIFPCG-NH2
modifications: linker 2-9-16 via TBMB
SMILES: CC[C@H](C)[C@@H]1NC(=O)[C@H](CCC(=O)O)NC(=O)[C@H]([C@@H](C)CC)NC(=O)[C@@H]2CCCN2C(=O)[C@@H]2CSCc3cc(cc(c3)CSC[C@@H](C(=O)NCC(N)=O)NC(=O)[C@@H]3CCCN3C(=O)[C@H](Cc3ccccc3)NC1=O)CSC[C@H](NC(=O)[C@H](C)N)C(=O)N[C@@H](CO)C(=O)N[C@@H]([C@@H](C)O)C(=O)N[C@@H](CCC(=O)O)C(=O)N[C@@H](CCCNC(=N)N)C(=O)N[C@@H](CCCNC(=N)N)C(=O)N[C@@H](Cc1ccc(O)cc1)C(=O)N2
With B3, the “inhibitory activity (residual enzyme activity)” value (in test [5]; with human factor XIa; in the test with human thrombin) was more than 10 µM throughout. Also, the “IC50 (nM), residual enzyme activity” value in test [2] and in test [3] was 33 nM throughout.

B4: TBMB modified synthetic peptide PK2 (bi-cyclic peptide) (peptide)
peptide: H-ACSDRFRNCPLWSGTCG-NH2
modifications: linker 2-9-16 via TBMB
SMILES: CC(C)C[C@@H]1NC(=O)[C@@H]2CCCN2C(=O)[C@@H]2CSCc3cc(cc(c3)CSC[C@@H](C(=O)NCC(N)=O)NC(=O)[C@H]([C@@H](C)O)NC(=O)CNC(=O)[C@H](CO)NC(=O)[C@H](Cc3c[nH]c4ccccc34)NC1=O)CSC[C@H](NC(=O)[C@H](C)N)C(=O)N[C@@H](CO)C(=O)N[C@@H](CC(=O)O)C(=O)N[C@@H](CCCNC(=N)N)C(=O)N[C@@H](Cc1ccccc1)C(=O)N[C@@H](CCCNC(=N)N)C(=O)N[C@@H](CC(N)=O)C(=O)N2
For B4, the “inhibitory activity (residual enzyme activity)” value (in test [5]; with human factor XIa; with human thrombin) was more than 10 µM in each case. In addition, the “IC50 (nM), residual enzyme activity” value in test [2] and in test [3] was 28.6 nM in each case.

For H-ACSTERRYCPIEIFPCG-NH2 (cysteine pairing not given here) [linear synthetic peptide PK4 (not TBMB modified)], the “IC50 (nM), residual enzyme activity” value in test [2] and in test [3] was 7180 nM throughout.

Take H-ACSDRFRNCPADEALCG-NH2 (cysteine pairing not given here) [linear synthetic peptide PK15 (not TBMB modified)]: the “IC50 (nM), residual enzyme activity” value in test [2] and in test [3] was more than 10000 nM in each case.

On to H-ACSDRFRNCPLWSGTCG-NH2 (cysteine pairing not given here) [linear synthetic peptide PK2 (not TBMB modified)], for which the “IC50 (nM), residual enzyme activity” value in test [2] and in test [3] was more than 10000 nM in each case.
